Literature values in article PMC2775921.
Read-outs that look alike come from different tables or passages of the source.

Legend:
IL-2 (Homo sapiens) [1] = target: IL-2 (Homo sapiens) (UniProt P60568)
IL-2 (Homo sapiens) [2] = target: IL-2 (Homo sapiens) (UniProt P60568); remark: listed apart in the source

Sequence of UniProt P60568 (P60568 21-153): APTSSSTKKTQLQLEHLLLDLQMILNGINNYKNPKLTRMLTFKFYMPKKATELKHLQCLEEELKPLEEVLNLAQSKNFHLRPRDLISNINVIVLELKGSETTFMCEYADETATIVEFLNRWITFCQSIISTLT

Row | Kd (IL-2 (Homo sapiens) [1]) [nM] | Kd (IL-2 (Homo sapiens) [2]) [nM] | Substance
1 | 10 | – | CD25 (membrane α-chain) (from UniProt P01589)
2 | – | 30 | soluble CD25 (from UniProt P01589)
